The source of these data is patent US20250236644A1 (University of Washington, published 2025).

Assay [1] concerns the target T1, TAMRA-labeled effector peptide cs074B (5(6)-TAMRA label coupled on resin after synthesis).
T1 construct: Chemically synthesized; also called TAMRA-cs074B
T1 peptide: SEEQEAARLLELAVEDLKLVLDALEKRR
Description: FP titration, 1 nM peptide, hinge varied. The protocol: (§1) FIG. 10. Redesign of hinges to bind other target peptides. An experimentally tested hinge (top, cs201) is redesigned using a one-sided two-state design approach to bind to different target peptides. Hinges csw13 and csw20 are designed to bind to peptides cs221B and cs074B, respectively, while having a backbone conformation that is similar to the parent cs201 that binds cs201B. Left: design models, right: FP titrations using 1 nM peptide (cs201B, cs221B, cs074B, js007B) and varying concentrations of hinge (from top to bottom: cs201, csw13, csw20). csw13 is an example of a successful orthogonal redesign that specifically binds the new target peptide cs221B while not binding the parent target peptide cs201B or the off-target peptides cs074B or js007B. csw20 is a less orthogonal example that binds the new target peptide cs074B most strongly but still binds to the parent-target peptide cs201B and to the off-target peptide cs221B albeit weaker than the new target.
(§2) All FP measurements were performed at 25° C. in 96-well plates (Corning 3686) using a Synergy Neo2™ plate reader and a 530/590 nm filter cube. The buffer for all FP measurements was 20 mM Tris-HCl, 100 mM NaCl, 0.05% v/v TWEEN20 at pH 8. Titrations were carried out in 96-well format, with 4 replicates per plate and 24 data points per titration (23 steps of two-fold serial dilution of hinges in the presence of TAMRA-labeled peptide at a constant concentration between 0.1 nM and 1 nM) with a final sample volume of 80 μl per well. Titration plates were incubated overnight at room temperature before measuring to ensure complete equilibration. The polarization signal S (as calculated by the Neo2™ software) was fitted to the equation

Assay [2] concerns the target T2, TAMRA-labeled effector peptide cs221B (5(6)-TAMRA label coupled on resin after synthesis).
T2 construct: also called TAMRA-cs221B
T2 peptide: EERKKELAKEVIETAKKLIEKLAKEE
Description: FP titration, 1 nM peptide, hinge varied. On the procedure:
as §1, §2

Assay [3] addresses T3, TAMRA-labeled effector peptide cs201B (5(6)-TAMRA label coupled on resin after synthesis).
T3 construct: also called TAMRA-cs201B
T3 peptide: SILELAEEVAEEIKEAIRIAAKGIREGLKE
The experiment in a line: FP titration, 1 nM peptide, hinge varied. The protocol:
as §1, §2

Assay [4] addresses T4, TAMRA-labeled effector peptide cs207B (5(6)-TAMRA label coupled on resin after synthesis).
T4 construct: also called TAMRA-cs207B
T4 peptide: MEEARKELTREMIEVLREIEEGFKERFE
Description: fluorescence polarization titration; TAMRA-peptide constant, hinge varied.
Text: (§3) We used our hinge design approach to generate hinge-peptide pairs that span a wide structural space (FIGS. 1D, 2A, 6, 7). We experimentally tested multiple rounds of designs, using both DHRs (21) and helical junctions (22) as input scaffolds, and improving individual steps of the design pipeline between iterations. Designs for which hinge and GFP-fused peptide were soluble and interacted as judged by size exclusion chromatography (SEC, FIGS. 7-8) were selected for further characterization by fluorescence polarization (FP). […] To circumvent the bottleneck of finding soluble peptide sequences, we also sought to design hinges that bind to a given target peptide. Starting from design cs201, we used a modified version of our design pipeline to redesign the hinge to bind peptides cs074B or cs221B, respectively, which have similar hydrophobic fingerprints as the original target peptide cs201B.
as §2
A general note: Polarisation of emitted light reports the rotation of a fluorescent probe.

Assay [5] deals with T2, TAMRA-labeled effector peptide cs221B. Described as above.
Text: as §3, §2

The target is the same in assay [6]. Description: fluorescence polarization kinetics; slope of kapp against hinge concentration. The protocol: as §2
(§4) For FP kinetics experiments a 2× peptide solution and 8 different 2× hinge solutions at different concentrations were prepared separately. 40 μl of each hinge solution were mixed with 40 μl peptide solution using a multichannel pipet and the measurement was started immediately after mixing. Polarization signals S at each concentration were fitted individually to the equation

The target is the same in assay [7]. The experiment in a line: fluorescence polarization kinetics.
Text: To test the effect of the conformational pre-equilibrium on effector binding, we introduced disulfide “staples” that lock the hinge in one conformation. Using FP we analyzed peptide binding to stapled versions of hinge cs221 (FIG. 5A,B). […] Using the pre-equilibrium model described above, the observed association rates provide an estimate of the fraction of hinge that is in state Y in absence of the peptide: a 200-fold higher observed on rate for the locked Y variant indicates a 200-fold higher fraction of hinge in state Y compared to the original hinge. Assuming that the locked Y variant is 100% in state Y and assuming that the microscopic rate constant k₂ is identical for the locked Y hinge and state Y of the original hinge, this would indicate that the original hinge is 99.5% in state X and 0.5% in state Y at equilibrium.
as §4

The target in assay [8] is T3, TAMRA-labeled effector peptide cs201B. Description: fluorescence polarization titration; TAMRA-peptide constant, hinge varied.
Text: as §3, §2

The target is the same in assay [9]. The experiment in a line: fluorescence polarization kinetics; slope of kapp against hinge concentration. The protocol: as §2, §4
In assay [10] the target is T5, TAMRA-labeled effector peptide cs217B (5(6)-TAMRA label coupled on resin after synthesis).
T5 construct: also called TAMRA-cs217B
T5 peptide: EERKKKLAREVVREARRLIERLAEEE
The experiment in a line: fluorescence polarization titration; signal never reached a plateau, only a lower bound can be estimated. On the procedure:
as §2

The target of assay [11] is T6, TAMRA-labeled effector peptide cs094B (5(6)-TAMRA label coupled on resin after synthesis).
T6 construct: also called TAMRA-cs094B
T6 peptide: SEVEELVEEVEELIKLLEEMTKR
The experiment in a line: fluorescence polarization titration; TAMRA-peptide constant, hinge varied.
Text: as §3, §2

In assay [12] the target is T6, TAMRA-labeled effector peptide cs094B. Description: fluorescence polarization kinetics; slope of kapp against hinge concentration. The protocol:
as §2, §4

B1: swapped target hinge csw20 (designed binder)
chain: MSGMEEVKELVEKAEELAKEAEELIKKAKKTGNPELLKEALRKLKEAVELAKEAVELDPEHEEAIELLARLAEKLLEVAKLLIELAKKTGNPELLKEALRALKEAREALRLAAEHAPEDAKLLARLAARLAELALLIAKILIELAKKTGNPELLLKALKVLTLAVEAVEAALEADPRLKEAVRVAKELAEVLKELAKLAKELAKKTGNEELKEAAKEAEEVAKRAEELAREAEGSGSHHWGSTHHHHHH
Regarding B1, the binding result in [1], in assay [2] and in assay [3] was “binds” in each case.

B2: hinge cs207 (designed binder)
chain: MSGTEDERRELEKVARKAIEAAREGNTDEVREQLQRALEIARESGSEEAFKLALEVVRRVAEVAARAGNVEAVKEALRVALEIVKEAMELIKDPEAIVRLALEAVRVVAEVAARAGAVEAVKVALRVALEIAKIAGTEEAVRLALEVVKRVSDIAKKAGNEDAVKEAEEVRKKIEEESGGSGSHHWGSTHHHHHH
notes: also called cs207A
In general, Kd refers to the free concentration of one partner at which half of the binding sites on the other are occupied at equilibrium, for simple one-to-one binding. Regarding B2, the dissociation constant (Kd) in assay [4] is 820 nM.

B3: hinge cs221 (designed binder)
chain: MSGEMKEEIRRLAEELRERTKDEEVRELAREAARLAEESDDEEVKEVVKKALEAALKSKDEEVIRLLLLAAVLAAAAARSGSPEEKLEIAKKALELAMKSKDEEVIRLALLAAVLAARSDDEEVLKKVKEALEKAMESKDVEEIRERLREAVEVARAGSGSHHWGSTHHHHHH
notes: also called original cs221; parent hinge without cysteines
Usually kon stands for a measure of how fast the partners come together. As to B3, the Kd in assay [5] is 2 nM. The kon in assay [6] came to 3400 M⁻¹ s⁻¹.

B4: cs221_L66T (designed binder)
chain: MSGEMKEEIRRLAEELRERTKDEEVRELAREAARLAEESDDEEVKEVVKKALEAALKSKDEEVIRLLLTAAVLAAAAARSGSPEEKLEIAKKALELAMKSKDEEVIRLALLAAVLAARSDDEEVLKKVKEALEKAMESKDVEEIRERLREAVEVARAGSGSHHWGSTHHHHHH
notes: Point mutant of hinge cs221
As for B4, in assay [5], the dissociation constant Kd worked out at 38.3 nM. Further, the kon in [6] is 2700 M⁻¹ s⁻¹.

B5: cs221_V111L (designed binder)
chain: MSGEMKEEIRRLAEELRERTKDEEVRELAREAARLAEESDDEEVKEVVKKALEAALKSKDEEVIRLLLLAAVLAAAAARSGSPEEKLEIAKKALELAMKSKDEEVIRLALLAALLAARSDDEEVLKKVKEALEKAMESKDVEEIRERLREAVEVARAGSGSHHWGSTHHHHHH
notes: Point mutant of hinge cs221
As for B5, the dissociation constant (Kd) in assay [5] was 0.3 nM. In addition, the on-rate constant (kon) in assay [6] came to 24300 M⁻¹ s⁻¹.

B6: cs221_A73E (designed binder)
chain: MSGEMKEEIRRLAEELRERTKDEEVRELAREAARLAEESDDEEVKEVVKKALEAALKSKDEEVIRLLLLAAVLAAEAARSGSPEEKLEIAKKALELAMKSKDEEVIRLALLAAVLAARSDDEEVLKKVKEALEKAMESKDVEEIRERLREAVEVARAGSGSHHWGSTHHHHHH
notes: Point mutant of hinge cs221
B6: the Kd in assay [5] was 4.9 nM. The kon in assay [6] was 1900 M⁻¹ s⁻¹.

B7: variant cs221_lockedY (designed binder)
chain: MSGEMKEEIRRLAEELRERTKDEEVRELAREAARLAEESDDEEVKEVVKKALEAALKSKDEEVIRLLLCAAVLAAAAARSGSPEEKLEIAKKALELAMKSKDEEVIRLACLAAVLAARSDDEEVLKKVKEALEKAMESKDVEEIRERLREAVEVARAGSGSHHWGSTHHHHHH
modifications: disulfide bond between the two introduced cysteines (locks the hinge in state Y; oxidized with copper phenanthroline)
notes: also called cs221 locked Y hinge variant
B7: the “fold higher association rate than the original hinge cs221” value in [7] is 200 fold. For the same molecule, the dissociation constant Kd in assay [5] came to 12 nM. The kon in assay [6] stood at 790000 M⁻¹ s⁻¹.

B8: cs221_A114T (designed binder)
chain: MSGEMKEEIRRLAEELRERTKDEEVRELAREAARLAEESDDEEVKEVVKKALEAALKSKDEEVIRLLLLAAVLAAAAARSGSPEEKLEIAKKALELAMKSKDEEVIRLALLAAVLATRSDDEEVLKKVKEALEKAMESKDVEEIRERLREAVEVARAGSGSHHWGSTHHHHHH
notes: Point mutant of hinge cs221
With B8, the Kd in assay [5] stood at 0.2 nM. Also, the kon in [6] turned out to be 27700 M⁻¹ s⁻¹.

B9: cs221_V111L_A114T (designed binder)
chain: MSGEMKEEIRRLAEELRERTKDEEVRELAREAARLAEESDDEEVKEVVKKALEAALKSKDEEVIRLLLLAAVLAAAAARSGSPEEKLEIAKKALELAMKSKDEEVIRLALLAALLATRSDDEEVLKKVKEALEKAMESKDVEEIRERLREAVEVARAGSGSHHWGSTHHHHHH
notes: Double mutant of hinge cs221; also called cs221-mut
As to B9, in assay [7], the “fold higher on rate than the original cs221” value amounted to 22 fold. The Kd in [5] amounted to 0.1 nM. Besides, the on-rate constant (kon) in assay [6] stood at 76200 M⁻¹ s⁻¹.

B10: hinge cs201 (designed binder)
chain: MSGDEEVQEAVERAEELREEAEELIKKARKTGDPELLRKALEALKEAVRAVREAIKRNPDNEEAIKTALRLARELRKVAKELIERARKTGDAELLKKALEAARVAVEAVRLAAEYNKENAEKMAELLVELAELAREVADVLIELAEKTGDPELLKKALEVLEEAVEAVRLAIEYDPDHEEAVETAKRLAEELRKVAELLEERAKETGDPELQELAKRAKEVADRARELAKKSNGSGSHHWGSTHHHHHH
notes: also called unlabeled hinge cs201
On to B10, for which, in assay [8], the dissociation constant (Kd) worked out at 22 nM. The kon in [9] was determined as 6700 M⁻¹ s⁻¹.

B11: hinge cs217 (designed binder)
chain: MSGEMKEEIRRLAEELEKKTKDEEVKELARKAAELAEKSDNEEVLEVVKEALRAALKSKDEEVRRLLLEAAVLAAAAESSGSPEEKLEVALRAIRLAEKSKDEEVRRLALEAAVLAAESDDEEVLEEVLRALRRAEESKDEEERREELREAVRRAREGSGSHHWGSTHHHHHH
For B11, the Kd in assay [10] is 20000 nM.

B12: hinge cs094 (designed binder)
chain: MSGDEEERLRQEVEKAEKELEKLAKQSTDEEVRKMVREVAKQLRRLAEEAIRQKDDEALRQATEVVKMVQEAVKVAQKTTDQKVILLLLAVALVAIKVAQLAIRSDDTEALRLARIVIRAVQLLVKLVQKTTDPEVRRTALRVAELLAKLAKEAIERNDEEALREASEVVKEVQELVKEAEKSTDEEEIRELLQRAEERIREAQERIREGSGSHHWGSTHHHHHH
For the molecule B12, the Kd in assay [11] was found to be 830 nM. Besides, in assay [12], the on-rate (kon) amounted to 9400 M⁻¹ s⁻¹.
